Results as given in article doi:10.1101/2023.07.17.549218.

How the values were obtained:
[1] = molecular target: HK97 small terminase (bacteriophage HK97); test: cryo-EM structure; small terminase with 31 bp dsDNA (cos 7-37), 1:2 protein to DNA, 25 mM Tris-HCl pH 7.5, 200 mM NaCl, 10 mM MgCl2; complex purified on S200 10/30; nonamer
[2] = molecular target: HK97 small terminase Arg107Ala mutant (bacteriophage HK97); test: SEC; size exclusion chromatography of the purified mutant proteins (Supplementary Fig. 12); nonamer
[3] = molecular target: HK97 small terminase Lys4Ala mutant (bacteriophage HK97); test: as above
[4] = molecular target: HK97 small terminase Lys100Ala mutant (bacteriophage HK97); test: as above
[5] = molecular target: HK97 small terminase Lys4Ala/Arg5Ala/Arg7Ala triple mutant (bacteriophage HK97); test: as above
[6] = molecular target: T1, HK97 small terminase WT (bacteriophage HK97) (UniProt Q9MBW4); test: MST; conditions: 25 mM Tris-HCl pH 7.5, 200 mM NaCl, 10 mM MgCl2; EMSA: 3 h at RT, gel at 4 C, 1 uM protein with 2 uM unlabelled or 30 nM labelled DNA; MST: +0.005-0.01% Tween …
T1 sequence: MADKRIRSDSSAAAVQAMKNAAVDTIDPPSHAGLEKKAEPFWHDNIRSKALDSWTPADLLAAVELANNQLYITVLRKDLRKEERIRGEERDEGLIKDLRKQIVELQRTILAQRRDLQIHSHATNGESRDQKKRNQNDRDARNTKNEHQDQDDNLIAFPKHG

[7] = test system: HK97 small terminase K4A/R5A/R7A (bacteriophage HK97); test: MST; conditions: 25 mM Tris-HCl pH 7.5, 200 mM NaCl, 10 mM MgCl2; EMSA: 3 h at RT, gel at 4 C, 1 uM protein with 2 uM unlabelled or 30 nM labelled DNA; MST: +0.005-0.01% Tween …
[8] = test system: HK97 small terminase R107A (bacteriophage HK97); test: MST; conditions: 25 mM Tris-HCl pH 7.5, 200 mM NaCl, 10 mM MgCl2; EMSA: 3 h at RT, gel at 4 C, 1 uM protein with 2 uM unlabelled or 30 nM labelled DNA; MST: +0.005-0.01% Tween …
[9] = molecular target: HK97 small terminase Arg5Ala mutant (bacteriophage HK97); test: SEC; size exclusion chromatography of the purified mutant proteins (Supplementary Fig. 12); nonamer
[10] = molecular target: HK97 small terminase Arg114Ala mutant (bacteriophage HK97); test: as above
[11] = molecular target: HK97 small terminase Arg7Ala mutant (bacteriophage HK97); test: as above

HK97 small terminase (natural protein)
stoichiometry N [1]: 9

HK97 small terminase Arg107Ala mutant (natural protein)
stoichiometry N [2]: 9

HK97 small terminase Lys4Ala mutant (natural protein)
stoichiometry N [3]: 9

HK97 small terminase Lys100Ala mutant (natural protein)
stoichiometry N [4]: 9

HK97 small terminase Lys4Ala/Arg5Ala/Arg7Ala triple mutant (natural protein)
stoichiometry N [5]: 9

cos71 (cos 31-100), lacks binding site
Kd [6]: 2040 nM

cos100 (cos -20 to 80)
Kd [7]: 850 nM | Kd [8]: 790 nM | Kd [6]: 500 nM

HK97 small terminase Arg5Ala mutant (natural protein)
stoichiometry N [9]: 9

HK97 small terminase Arg114Ala mutant (natural protein)
stoichiometry N [10]: 9

HK97 small terminase Arg7Ala mutant (natural protein)
stoichiometry N [11]: 9
